Assays:
[1] = molecular target: human CD123 (IL3RA) on cells (human) (UniProt P26951); assay: cell-based or functional assay
[2] = molecular target: Macaca fascicularis CD3 (TCR complex) on cyno HSC-F cells (Macaca fascicularis) (UniProt Q95LI5); assay: flow cytometry, cyno HSC-F
[3] = molecular target: human CD3 (TCR complex) on primary human T cells or Jurkat cells (human) (UniProt P07766); assay: flow cytometry, Jurkat E6-1
[4] = molecular target: Macaca fascicularis CD3ε/δ-Fc fusion protein (Macaca fascicularis) (UniProt Q95LI8); assay: SPR Biacore, ratio against human CD3εδ
Chain of Macaca fascicularis CD3ε/δ-Fc fusion protein (Macaca fascicularis) (chain, as listed by the source mutant, chain 1 of 2): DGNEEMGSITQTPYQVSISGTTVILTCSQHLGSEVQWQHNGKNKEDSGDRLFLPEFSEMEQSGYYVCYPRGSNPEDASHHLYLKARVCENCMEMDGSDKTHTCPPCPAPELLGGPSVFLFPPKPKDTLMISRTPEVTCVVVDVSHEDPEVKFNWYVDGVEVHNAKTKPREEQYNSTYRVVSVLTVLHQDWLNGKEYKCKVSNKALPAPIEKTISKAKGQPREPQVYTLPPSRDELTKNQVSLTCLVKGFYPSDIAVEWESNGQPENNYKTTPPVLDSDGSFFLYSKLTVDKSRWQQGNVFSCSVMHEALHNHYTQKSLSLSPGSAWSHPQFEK
Chain of Macaca fascicularis CD3ε/δ-Fc fusion protein (Macaca fascicularis) (Q95LI8 22-105, stated change not applied, chain 2 of 2): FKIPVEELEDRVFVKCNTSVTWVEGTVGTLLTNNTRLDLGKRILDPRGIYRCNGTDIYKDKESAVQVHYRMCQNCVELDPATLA

Chain of human CD3 (TCR complex) on primary human T cells or Jurkat cells (human) (P07766 23-207, one chain of several): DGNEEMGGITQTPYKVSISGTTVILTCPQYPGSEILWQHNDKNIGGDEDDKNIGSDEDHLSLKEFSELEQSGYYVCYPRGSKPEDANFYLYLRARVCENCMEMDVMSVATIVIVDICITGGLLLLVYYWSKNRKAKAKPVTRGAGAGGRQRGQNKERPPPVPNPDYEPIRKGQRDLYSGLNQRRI
Chain of CODV-Fab 7G3 × I2C (bispecific antibody) (light, part): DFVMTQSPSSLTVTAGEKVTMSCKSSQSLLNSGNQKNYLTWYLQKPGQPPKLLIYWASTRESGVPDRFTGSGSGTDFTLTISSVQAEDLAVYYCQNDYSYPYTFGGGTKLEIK
Chain of CODV-Fab 7G3 × I2C (bispecific antibody) (heavy, part): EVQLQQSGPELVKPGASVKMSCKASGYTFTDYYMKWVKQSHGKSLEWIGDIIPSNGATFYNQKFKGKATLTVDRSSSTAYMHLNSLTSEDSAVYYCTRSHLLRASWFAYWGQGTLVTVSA
Chain of human CD123 (IL3RA) on cells (human) (P26951 19-378): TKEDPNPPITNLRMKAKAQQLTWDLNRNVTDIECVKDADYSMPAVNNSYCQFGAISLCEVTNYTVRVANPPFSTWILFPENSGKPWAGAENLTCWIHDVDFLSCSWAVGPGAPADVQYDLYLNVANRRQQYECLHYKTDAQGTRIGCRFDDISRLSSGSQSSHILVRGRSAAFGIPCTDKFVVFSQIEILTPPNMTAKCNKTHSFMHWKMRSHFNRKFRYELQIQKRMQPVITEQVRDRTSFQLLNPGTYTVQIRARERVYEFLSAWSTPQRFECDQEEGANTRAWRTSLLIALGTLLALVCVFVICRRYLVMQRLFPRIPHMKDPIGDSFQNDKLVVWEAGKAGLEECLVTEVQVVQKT
Chain of Macaca fascicularis CD3 (TCR complex) on cyno HSC-F cells (Macaca fascicularis) (Q95LI5 22-198, one chain of several): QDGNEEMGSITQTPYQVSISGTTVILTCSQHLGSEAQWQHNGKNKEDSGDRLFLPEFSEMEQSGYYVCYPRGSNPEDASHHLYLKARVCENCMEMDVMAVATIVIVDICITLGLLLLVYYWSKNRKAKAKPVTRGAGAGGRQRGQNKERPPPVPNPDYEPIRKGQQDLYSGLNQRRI

CODV-Fab 7G3 × I2C (bispecific antibody)
Activity EC50 [ng/ml], cytotoxic assay on THP-1 with human T cells [1]: 20 ng/mL

FN18 (antibody)
geometric mean of relative fluorescence intensity (rfu) [2]: 1260 rfu | geometric mean of relative fluorescence intensity (rfu) [3]: 7 rfu

SP-34 (antibody)
Ratio KD(cy)/KD(hu) [4]: 5

Source: patent US20210292423A1
